{"source": "paper PMC11630628", "about": "(Molecular Plant, 2024)", "key": {"[1]": {"target": "T1, MIK2 ectodomain (MIK2^LRR-MBP) (Arabidopsis thaliana, UniProt Q8VZG8)", "T1 construct": "expressing only the ectodomain (residues 45–707); made in house; host or cells: E. coli strain BL21", "T1 sequence (Q8VZG8 45-707)": "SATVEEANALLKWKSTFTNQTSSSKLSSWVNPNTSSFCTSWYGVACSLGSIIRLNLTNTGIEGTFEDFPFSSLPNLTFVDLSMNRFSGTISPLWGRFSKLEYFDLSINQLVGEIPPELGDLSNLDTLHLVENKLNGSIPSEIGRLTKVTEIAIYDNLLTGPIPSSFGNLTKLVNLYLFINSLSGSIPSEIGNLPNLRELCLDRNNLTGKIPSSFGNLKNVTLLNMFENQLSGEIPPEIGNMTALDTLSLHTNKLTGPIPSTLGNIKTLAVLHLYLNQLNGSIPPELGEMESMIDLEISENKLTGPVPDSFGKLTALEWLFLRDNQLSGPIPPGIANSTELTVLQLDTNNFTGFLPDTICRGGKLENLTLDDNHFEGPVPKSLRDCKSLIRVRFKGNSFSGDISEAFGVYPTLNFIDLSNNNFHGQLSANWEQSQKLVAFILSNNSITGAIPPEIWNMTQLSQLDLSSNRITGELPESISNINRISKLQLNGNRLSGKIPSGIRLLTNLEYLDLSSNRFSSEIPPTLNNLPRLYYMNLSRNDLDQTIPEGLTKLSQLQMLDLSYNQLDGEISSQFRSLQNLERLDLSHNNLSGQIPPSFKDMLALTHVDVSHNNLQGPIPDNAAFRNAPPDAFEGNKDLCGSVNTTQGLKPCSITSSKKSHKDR", "assay": "MST competitive binding analysis", "conditions": "MST competition (Figure 5F)", "description": "To express MIK2 protein in the soluble form, the truncated sequence of MIK2 (MIK2 ^LRR) expressing only the ectodomain (residues 45–707) was amplified from the gMIK2-Blunt subclone vector and inserted into the pET41 vector, fused with a 6× His-MBP tag. Then, the ectodomain of MIK2 (MIK2^LRR) in the absence of the putative N-terminal signal peptide was expressed in E. coli strain BL21 (TransGen). Cell cultures were grown to 0.6 optical density 600 and then induced with 0.3 mM isopropyl-β-D-thiogalactopyranoside for 30 h at 13°C. The mixture was then centrifuged at 12 000 rpm to separate the cells from the medium. The pellets were resuspended with the binding buffer (20 mM phosphate buffer, 500 mM NaCl, 50 mM imidazole, pH 7.4). The cells were sonicated on ice for 30 min in the lysis buffer (0.2 mg/mL lysozyme, 20 μg/mL DNAse, 1 mM MgCl2, 1 mM PMSF). […]\nA Monolith NT.115 system (Nanotemper Technologies) was used to perform MST assays. […] The concentration of purified MIK2^LRR was measured with the BCA Protein Quantification Kit (Vazyme) and then diluted with ddH2O to 20 μM. […] MST results were analyzed using the Nanotemper analysis software (MO. Affinity) ([Jerabek-Willemsen et al., 2011]). […] The dissociation constant Ki was determined using the Ki Finder Tool available on the NanoTemper Technologies website (http://www.nanotempertechnologies.com/get-it-all/tools/ki-finder/)."}, "[2]": {"system": "ORE1, NAP and SAG12 transcripts", "assay": "qPCR expression of senescence genes in detached leaves", "type": "cell-based, Arabidopsis thaliana", "conditions": "1 μM peptide, 0, 1, 5, 10 h, detached sixth rosette leaves, vs mock, ACTIN reference, three experiments", "text": "Total RNA was isolated from Arabidopsis leaves with the RNAiso Plus (TAKARA) and reverse transcribed using the PrimeScript RT reagent Kit (TAKARA). qPCR reactions were implemented in an Applied Biosystems 7500 Real-Time PCR system with the SYBR Premix Ex Taq II (TAKARA). ACTIN was used as the reference gene for qPCR analyses. The primers used for qPCR are listed in Supplemental Table 2."}, "[3]": {"system": "MIK2-dependent plant immune response", "conditions": "ref Hou et al., 2021b, Rhodes et al.; cited from earlier work", "text": "Senescence, a crucial biological event in plant development, involves the coordinated breakdown of cellular components to recycle nutrients, aiding adaptation to changing environments. It optimizes nutrient storage and reuse, particularly in leaves, the primary photosynthetic organs. Initiation of leaf senescence prompts various physiological changes, including chlorophyll (Chl) reduction and macromolecule degradation, enabling nutrient recycling that supports the growth of seeds and fruits ([Yang et al., 2014]; [Kim et al., 2018]; [Woo et al., 2019]; [Guo et al., 2021]). Efficient senescence ... || MIK2 was also linked to cell wall integrity ([Van der Does et al., 2017]; [Coleman et al., 2020]) and disease resistance ([Van der Does et al., 2017]). MIK2 was reported to function in elicitor perception in response to infection by Fusarium spp. fungi ([Van der Does et al., 2017]; [Coleman et al., 2020]). […] Loss-of-function in p ..."}, "bik1 pbl1 double mutants": {"system": "bik1 pbl1 double mutants", "design": "method as in Hou et al., 2021b", "conditions": "ref Hou et al., 2021b; cited from earlier work"}, "[4]": {"system": "Arabidopsis root elongation", "conditions": "ref Hou et al., 2021b, Rhodes et al.; cited from earlier work", "text": "Senescence, a crucial biological event in plant development, involves the coordinated breakdown of cellular components to recycle nutrients, aiding adaptation to changing environments. It optimizes nutrient storage and reuse, particularly in leaves, the primary photosynthetic organs. Initiation of leaf senescence prompts various physiological changes, including chlorophyll (Chl) reduction and macromolecule degradation, enabling nutrient recycling that supports the growth of seeds and fruits ([Yang et al., 2014]; [Kim et al., 2018]; [Woo et al., 2019]; [Guo et al., 2021]). Efficient senescence ..."}, "[5]": {"system": "MIK2-GFP (pMIK2::MIK2-GFP/mik2-1 plants)", "assay": "MIK2-phosphorylation assay in detached leaves", "type": "cell-based, Arabidopsis thaliana", "conditions": "5 μM peptide, 0, 1, 2, 4 h, pMIK2::MIK2-GFP/mik2-1 leaves; GFP IP, anti-pThr blot; vs mock", "method": "Transgenic A. thaliana T3 homozygous plants expressing MIK2-GFP under the control of its native promoter were grown under long-day conditions (16 h light/8 h dark) for 4 weeks before sampling. […] Leaves were subjected to vacuum infiltration at room temperature for 30 min. Following treatment, the leaves were rapidly frozen in liquid nitrogen and ground into a fine powder. […] The samples were incubated for 30 min at 4°C with gentle agitation, followed by centrifugation at 14 000 rpm for 20 min at 4°C to remove debris. The supernatant was then incubated with anti-GFP agarose beads (Abcam, AE079) overnight at 4°C for immunoprecipitation (IP). […] The 30-μL eluted proteins were resolved on 7.5% SDS-PAGE gels and transferred onto polyvinylidene fluoride membranes. […] Abcam, AB6556), goat anti-rabbit immunoglobulin G (IgG) (H + L)-horseradish peroxidase (HRP) antibody (1:4000; Abcam, AB6721) and its phosphorylation status using anti-pThr antibodies (1:750, Cell Signaling, 9386), goat anti-mouse IgG (H + L)-HRP antibodies (1:2000; Abcam, AB6789), respectively."}}, "data": [{"molecule": "SERINE-RICH ENDOGENOUS PEPTIDE 10 (processed from PROSCOOP10; synthesized by GenScript) peptide: ALPYHHELFLGRKRMNYYKPNSAIGTPSSTSDHAPGSNGRKLMSIYRPNGDIFTGPSGSGHGGGRTPAP", "values": [{"measurement": "effect of competitor peptide on the MIK2 complex of the other peptide (MST)", "setting": "[1]", "result": "limited effect on the MIK2-SCOOP12 complex stability maintenance"}, {"measurement": "expression of ORE1, NAP and SAG12", "setting": "[2]", "result": "strongly and relatively quickly induced the expression of the tested transcripts"}, {"measurement": "immune response (published)", "setting": "[3]", "result": "inducing plant immune responses"}, {"measurement": "root growth inhibition in bik1 pbl1 (published)", "setting": "bik1 pbl1 double mutants", "result": "only mild alleviation of the SCOOP10-induced root growth inhibition"}, {"measurement": "root elongation (published)", "setting": "[4]", "result": "inhibiting root elongation"}, {"measurement": "MIK2 kinase phosphorylation", "setting": "[5]", "result": "MIK2 phosphorylation decreased drastically over time compared to the mock controls"}]}]}
